Assay [1] deals with T1, Mouse Fc-cynomolgus monkey GDF15 (Mu IgG1Fc_Fxa_Cyno GDF15) (cynomolgus monkey).
T1 construct: Whole entry is the fusion: mouse IgG1 Fc, FXa site and linker, cynomolgus GDF15; described as dimeric; also called Murine dimeric IgG1 Fc-cyno GDF-15 with FXa cleavage site
T1 chain: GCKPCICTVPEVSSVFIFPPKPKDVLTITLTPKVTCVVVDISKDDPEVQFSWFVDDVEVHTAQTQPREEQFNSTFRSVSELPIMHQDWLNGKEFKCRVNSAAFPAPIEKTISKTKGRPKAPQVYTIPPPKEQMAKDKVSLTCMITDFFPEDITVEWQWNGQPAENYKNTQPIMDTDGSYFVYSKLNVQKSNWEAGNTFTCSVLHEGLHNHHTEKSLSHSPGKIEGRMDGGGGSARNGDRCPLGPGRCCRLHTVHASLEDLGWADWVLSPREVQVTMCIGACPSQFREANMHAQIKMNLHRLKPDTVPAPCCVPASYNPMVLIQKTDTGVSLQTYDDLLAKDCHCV
In words: SPR BIAcore T200, 37C; Fc-GDF15 captured, monomeric Fc-Fab as analyte. From the text: (§1) To understand the KD value, without the avidity effect, of GDF15_001 binding to GDF15, monomeric Fc-Fab was produced and tested in the same assay used in Example 2. […] Mu IgG1Fc_Fxa_Hu GDF15, Mu IgG1Fc_Fxa_Mu GDF15 and Mu IgG1Fc_Fxa_Cyno GDF15 were captured onto three different flow cells of a CM4 sensorchip (catalogue number BR100534, GE Healthcare) surface using the Mouse Antibody Capture Kit (BR100838, GE Healthcare) according to the manufacturer's protocol. The running and sample buffer was 10 mM HEPES pH 7.4, 0.15M NaCl, 3 mM EDTA, 0.05% P-20 (HBS-EP+). The final capture levels of Mu IgG1Fc_Fxa_Hu GDF15, Mu IgG1Fc_Fxa_Mu GDF15 and Mu IgG1Fc_Fxa_Cyno GDF15 were 19 resonance units (RU), 22 RU and 19 RU respectively. Flow cell 1 was used as a reference flow cell. […] The dissociation was monitored for 1200 seconds and the surface was regenerated with 10 mM Glycine pH 1.7. Binding affinities and rate constants were determined by fitting the resulting sensorgram data to a 1:1 Langmuir model in BIAcore T200 Evaluation software version 2.0 (GE Healthcare).
(In general: In SPR one partner is held on a chip, and binding of the other changes the refractive index at the surface.)

In assay [2] the target is T2, Mouse Fc-human GDF15 (Mu IgG1Fc_Fxa_Hu GDF15) (human).
T2 construct: Whole entry is the fusion: mouse IgG1 Fc, FXa site and linker, mature human GDF15; described as dimeric; also called Murine dimeric IgG1 Fc-human GDF-15 with FXa cleavage site; control human GDF15
T2 chain: T1 chain with R239H, H254R, E287A, M296T, N297S, V345I
The description is as above.
Excerpt: as §1

Changes are numbered by the printed parent chain. Values joined by “and” are separate entries in the source; they are usually repeats but may differ in a detail not shown here. Identical values can stand only once.

For orientation: Kd means the constant that tells how readily two partners part at equilibrium. As a reminder, the koff is a measure of how fast the partners let go of each other. A word on the kon: it is the rate constant with which the complex forms.

B1: monomeric GDF15_001 (CH23LS-GBT-GDF15_001) (Fab, V domains shown)
VH: QVQLVQSGAEVKKPGSSVKVSCKASGYTFSSYNIDWVRQAPGQGLEWMGGINPIFGTAFYNQKFQGRVTITADESTSTAYMELSSLRSEDTAVYYCAREAITTVGAMDHWGQGTLVTVSS
VL: EIVLTQSPATLSLSPGERATLSCRTSQSVHNYLAWYQQKPGQAPRLLIYDASTRADGIPARFSGSGSGTDFTLTISSLEPEDFAVYYCQQFWSWPWTFGQGTKVEIK
notes: Monovalent 'monomeric Fc-Fab' of GDF15_001 made to measure KD without avidity; also called CH23LS-GDF15_001; monomeric Fc-Fab
For the molecule B1, in assay [1], the Kd is 0.0458 nM and 0.0782 nM; the T½ min is 2.57 h and 2.05 h; the koff was 7.48e-05 s⁻¹ and 9.39e-05 s⁻¹; the kon is 1.63e+06 M⁻¹ s⁻¹ and 1.2e+06 M⁻¹ s⁻¹. Further, in assay [2], the T½ min is 8.54 h and 4.2 h; the koff was 2.25e-05 s⁻¹ and 4.58e-05 s⁻¹; the kon is 1.52e+06 M⁻¹ s⁻¹ and 1.66e+06 M⁻¹ s⁻¹.
